The text below walks through data of publication PMC12267440, “Human glycogenins maintain glucose homeostasis by regulating glycogen metabolism” (Nature Communications, 2025).

Positions count from the first letter of the chain named. Names may count otherwise.

The labels stand for the following.
T1: Homo sapiens glycogen synthase GS2 (GYS2), amino acids 1-703 (human, UniProt P54840 1-703)
T1 construct: glycogen synthase GS2 (GYS2), Homo sapiens, UniProt P54840, amino acids 1-703; The methods say that the His tag was put at the N-terminus of 'GS' without telling GS1 and GS2 apart; source: baculovirus (Bac-to-Bac), purified with GYG2
T1 sequence (looked up): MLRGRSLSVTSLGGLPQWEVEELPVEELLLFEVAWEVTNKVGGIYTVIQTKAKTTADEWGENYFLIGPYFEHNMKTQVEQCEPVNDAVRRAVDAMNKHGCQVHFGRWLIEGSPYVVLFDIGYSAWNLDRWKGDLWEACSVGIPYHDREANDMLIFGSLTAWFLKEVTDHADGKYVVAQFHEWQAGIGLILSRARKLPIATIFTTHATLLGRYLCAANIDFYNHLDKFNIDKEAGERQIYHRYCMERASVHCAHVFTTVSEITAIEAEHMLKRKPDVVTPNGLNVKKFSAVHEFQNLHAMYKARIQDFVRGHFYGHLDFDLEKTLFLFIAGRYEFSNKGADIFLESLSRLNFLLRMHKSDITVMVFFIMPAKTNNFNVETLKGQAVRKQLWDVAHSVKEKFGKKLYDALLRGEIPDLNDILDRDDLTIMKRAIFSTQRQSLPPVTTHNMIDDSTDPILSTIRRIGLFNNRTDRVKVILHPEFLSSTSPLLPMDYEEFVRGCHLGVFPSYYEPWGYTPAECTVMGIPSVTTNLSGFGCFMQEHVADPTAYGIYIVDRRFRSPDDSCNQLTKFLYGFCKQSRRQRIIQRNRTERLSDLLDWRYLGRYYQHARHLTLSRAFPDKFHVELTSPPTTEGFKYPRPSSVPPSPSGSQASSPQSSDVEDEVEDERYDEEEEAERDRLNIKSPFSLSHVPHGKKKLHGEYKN

B1: Homo sapiens glycogen synthase GS1 (GYS1), amino acids 1-737, N-terminal hexahistidine tag (enzyme, human, UniProt P13807 1-737, looked up)
chain: MPLNRTLSMSSLPGLEDWEDEFDLENAVLFEVAWEVANKVGGIYTVLQTKAKVTGDEWGDNYFLVGPYTEQGVRTQVELLEAPTPALKRTLDSMNSKGCKVYFGRWLIEGGPLVVLLDVGASAWALERWKGELWDTCNIGVPWYDREANDAVLFGFLTTWFLGEFLAQSEEKPHVVAHFHEWLAGVGLCLCRARRLPVATIFTTHATLLGRYLCAGAVDFYNNLENFNVDKEAGERQIYHRYCMERAAAHCAHVFTTVSQITAIEAQHLLKRKPDIVTPNGLNVKKFSAMHEFQNLHAQSKARIQEFVRGHFYGHLDFNLDKTLYFFIAGRYEFSNKGADVFLEALARLNYLLRVNGSEQTVVAFFIMPARTNNFNVETLKGQAVRKQLWDTANTVKEKFGRKLYESLLVGSLPDMNKMLDKEDFTMMKRAIFATQRQSFPPVCTHNMLDDSSDPILTTIRRIGLFNSSADRVKVIFHPEFLSSTSPLLPVDYEEFVRGCHLGVFPSYYEPWGYTPAECTVMGIPSISTNLSGFGCFMEEHIADPSAYGIYILDRRFRSLDDSCSQLTSFLYSFCQQSRRQRIIQRNRTERLSDLLDWKYLGRYYMSARHMALSKAFPEHFTYEPNEADAAQGYRYPRPASVPPSPSLSRHSSPHQSEDEEDPRNGPLEEDGERYDEDEEAAKDRRNIRAPEWPRRASCTSSTSGSKRNSVDTATSSSLSTPSEPLSPTSSLGEERN
notes: glycogen synthase GS1 (GYS1), Homo sapiens, UniProt P13807, amino acids 1-737; No cleavage of the His tag is described; the complexes were captured on Ni-NTA by it; The cryo-EM complex is called heterooctameric (D2 symmetry imposed); source: Sf9, co-infected with a GYG baculovirus, purified (Ni-NTA, Superose 6); not shown: His6 (PreScission protease-cleavable), N-terminal, kept
B2: Homo sapiens wild-type GYG1 (glycogenin-1) (enzyme, human, UniProt P46976-2 1-333, looked up)
chain: MTDQAFVTLTTNDAYAKGALVLGSSLKQHRTTRRLVVLATPQVSDSMRKVLETVFDEVIMVDVLDSGDSAHLTLMKRPELGVTLTKLHCWSLTQYSKCVFMDADTLVLANIDDLFDREELSAAPDPGWPDCFNSGVFVYQPSVETYNQLLHLASEQGSFDGGDQGILNTFFSSWATTDIRKHLPFIYNLSSISIYSYLPAFKVFGASAKVVHFLGRVKPWNYTYDPKTKSVKSEAHDPNMTHPEFLILWWNIFTTNVLPLLQQFGLVKDTCSYVNVEDVSGAISHLSLGEIPAMAQPFVSSEERKERWEQGQADYMGADSFDNIKRKLDTYLQ
modifications: autoglycosylated (smear on blots; glucose polymer on Y195)
notes: glycogenin-1 (GYG1), Homo sapiens, UniProt P46976-2; also called GYG1 (WT); source: Sf9, co-infected with GS baculovirus, purified with GS (Ni-NTA, Superose 6)
B3: Homo sapiens GYG1 Y195F mutant (enzyme, human, UniProt P46976-2 1-333, looked up)
chain: B2 chain with Y195F
notes: glycogenin-1 (GYG1), Homo sapiens, UniProt P46976-2, autoglycosylation site mutated; source: Sf9, co-infected with GS baculovirus, purified with GS (Ni-NTA, Superose 6)
B4: Homo sapiens wild-type GYG2 (glycogenin-2) (enzyme, human, UniProt O15488-1 1-501, looked up)
chain: MSETEFHHGAQAGLELLRSSNSPTSASQSAGMTVTDQAFVTLATNDIYCQGALVLGQSLRRHRLTRKLVVLITPQVSSLLRVILSKVFDEVIEVNLIDSADYIHLAFLKRPELGLTLTKLHCWTLTHYSKCVFLDADTLVLSNVDELFDRGEFSAAPDPGWPDCFNSGVFVFQPSLHTHKLLLQHAMEHGSFDGADQGLLNSFFRNWSTTDIHKHLPFIYNLSSNTMYTYSPAFKQFGSSAKVVHFLGSMKPWNYKYNPQSGSVLEQGSASSSQHQAAFLHLWWTVYQNNVLPLYKSVQAGEARASPGHTLCHSDVGGPCADSASGVGEPCENSTPSAGVPCANSPLGSNQPAQGLPEPTQIVDETLSLPEGRRSEDMIACPETETPAVITCDPLSQPSPQPADFTETETILQPANKVESVSSEETFEPSQELPAEALRDPSLQDALEVDLAVSVSQISIEEKVKELSPEEERRKWEEGRIDYMGKDAFARIQEKLDRFLQ
notes: glycogenin-2 (GYG2), Homo sapiens, UniProt O15488-1, full-length; Two vectors are named (MultiBac pACEBac1 with full-length GYG2; Bac-to-Bac with wild-type GYG2 O15488-1); source: Sf9, co-infected with GS baculovirus, purified with GS (Ni-NTA, Superose 6); also isolated alone
B5: Homo sapiens GYG2 Y228F mutant (enzyme, human, UniProt O15488-1 1-501, looked up)
chain: B4 chain with Y228F
notes: glycogenin-2 (GYG2), Homo sapiens, UniProt O15488-1, putative autoglycosylation site mutated; also called GYG2 Y229F mutant (methods); source: baculovirus (Bac-to-Bac), purified with GS

Data set [1] concerns the molecule itself. The experiment in a line: cryo-EM structure; purified GS•GYG2 complex from SEC peak fractions at ~2 mg/mL; Titan Krios 300 keV; D2 symmetry imposed.
Data set [2] concerns the target B1. Briefly: SEC; co-expressed in insect cells, captured on Ni-NTA by the His6 tag of GS, then Superose 6 16/60; SDS-PAGE and Western blot of peak fractions. As to conditions: both partners purified. On the technique in general: In gel filtration, larger molecules generally elute earlier.
Data set [3] concerns the target T1, Homo sapiens glycogen synthase GS2 …. Described as above. To be noted: both partners purified.

Consider B1, for which the binding result in data set [1] is “binds”.

B2: in data set [2], the binding result is listed as “binds”.

As for B3, the binding result in data set [2] is reported as “binds”. On to B4, for which the binding result in data set [3] is listed as “binds”. On to B5, for which the binding result in data set [2] is “binds”.
